The results in this text go back to article PMC11340043, “Antagonist anti-LIF antibody derived from naive human scFv phage library inhibited tumor growth in mice” (BMC Immunology, 2024).

Experiment [1] has as its target T1, human gp130-his (human, UniProt P40189 23-619).
T1 construct: gp130 (interleukin-6 receptor subunit beta), human; source: bought: Sino Biological
T1 sequence (looked up): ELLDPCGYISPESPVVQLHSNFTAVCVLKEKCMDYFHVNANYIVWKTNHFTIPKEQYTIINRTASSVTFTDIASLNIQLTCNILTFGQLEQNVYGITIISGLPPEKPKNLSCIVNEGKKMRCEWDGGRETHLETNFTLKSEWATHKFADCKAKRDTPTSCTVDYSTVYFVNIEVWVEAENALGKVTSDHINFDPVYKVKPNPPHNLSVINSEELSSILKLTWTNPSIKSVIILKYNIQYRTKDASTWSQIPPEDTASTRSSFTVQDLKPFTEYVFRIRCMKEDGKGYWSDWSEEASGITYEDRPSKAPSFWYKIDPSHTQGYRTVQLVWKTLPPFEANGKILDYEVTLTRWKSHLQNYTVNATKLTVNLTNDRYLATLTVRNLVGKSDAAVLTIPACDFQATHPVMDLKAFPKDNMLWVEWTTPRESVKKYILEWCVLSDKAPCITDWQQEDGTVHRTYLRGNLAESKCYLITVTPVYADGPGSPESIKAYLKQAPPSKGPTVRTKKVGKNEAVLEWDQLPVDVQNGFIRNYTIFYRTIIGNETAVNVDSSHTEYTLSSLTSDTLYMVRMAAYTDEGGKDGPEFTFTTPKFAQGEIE
Description: ELISA; receptor competitive ELISA: wells coated with LIFR-his or gp130-his (100 ng/well); hLIF-hFc (50 ng) pre-mixed with recombinant antibody at 4 C for 1 h, then 37 C for 1 h on the plate; detected with HRP goat anti-human IgG. To be noted: both partners purified.

Experiment [2] deals with T1, human gp130-his. Description: SPR; Biacore 8K, CM5 chip with anti-mouse IgG, 1G11 captured; 200 nM hLIF flowed, followed by 500 nM LIFR-his or gp130-his; 25 C, pH 7.4, 10 mM HEPES, 150 mM NaCl, 3 mM EDTA, 0.05% Tween-20. Conditions: both partners purified.

B1: human LIF with human IgG1-Fc tag (Fc fusion)
chain: not shown
notes: also called hLIF-hFc; LIF-hFc
As for B1, the binding result with human gp130-his [1] is given as “binds”.

B2: human LIF (ligand)
chain: not shown
notes: also called hLIF; source: bought: Genscript
In the case of B2, in the experiment with human gp130-his [2], the binding result is “binds”.
